T1: full-length steroid 17-alpha-hydroxylase/17,20-lyase (CYP17A1full) (UniProt P05093 1-508)
T1 construct: steroid 17-alpha-hydroxylase/17,20 lyase (CYP17A1), full-length recombinant form; also called full-length CYP17A1
T1 sequence (looked up): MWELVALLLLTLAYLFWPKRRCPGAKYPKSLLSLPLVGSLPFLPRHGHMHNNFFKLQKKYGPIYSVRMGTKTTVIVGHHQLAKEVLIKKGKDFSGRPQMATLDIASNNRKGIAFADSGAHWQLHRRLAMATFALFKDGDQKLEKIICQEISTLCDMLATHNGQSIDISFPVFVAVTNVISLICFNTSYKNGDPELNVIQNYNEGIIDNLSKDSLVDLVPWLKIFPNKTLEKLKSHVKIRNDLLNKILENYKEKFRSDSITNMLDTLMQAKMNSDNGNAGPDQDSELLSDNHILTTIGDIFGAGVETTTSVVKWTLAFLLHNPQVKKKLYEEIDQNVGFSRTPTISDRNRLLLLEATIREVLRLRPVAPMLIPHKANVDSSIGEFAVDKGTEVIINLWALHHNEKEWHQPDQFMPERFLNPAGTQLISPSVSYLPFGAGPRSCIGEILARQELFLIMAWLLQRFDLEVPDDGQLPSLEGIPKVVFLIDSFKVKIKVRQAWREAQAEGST

B1: sulfotransferase SULT2A1 (enzyme, human, UniProt Q06520 1-285, looked up)
chain: MSDDFLWFEGIAFPTMGFRSETLRKVRDEFVIRDEDVIILTYPKSGTNWLAEILCLMHSKGDAKWIQSVPIWERSPWVESEIGYTALSETESPRLFSSHLPIQLFPKSFFSSKAKVIYLMRNPRDVLVSGYFFWKNMKFIKKPKSWEEYFEWFCQGTVLYGSWFDHIHGWMPMREEKNFLLLSYEELKQDTGRTIEKICQFLGKTLEPEELNLILKNSSFQSMKENKMSNYSLLSVDYVVDKAQLLRKGVSGDWKNHFTVAQAEDFDKLFQEKMADLPRELFPWE
notes: cytosolic sulfotransferase SULT2A1, human, recombinant; source: E. coli Rosetta, purified (Ni-NTA agarose, hydroxyapatite)
B2: sulfotransferase SULT1E1 (enzyme, human, UniProt P49888 1-294, looked up)
chain: MNSELDYYEKFEEVHGILMYKDFVKYWDNVEAFQARPDDLVIATYPKSGTTWVSEIVYMIYKEGDVEKCKEDVIFNRIPFLECRKENLMNGVKQLDEMNSPRIVKTHLPPELLPASFWEKDCKIIYLCRNAKDVAVSFYYFFLMVAGHPNPGSFPEFVEKFMQGQVPYGSWYKHVKSWWEKGKSPRVLFLFYEDLKEDIRKEVIKLIHFLERKPSEELVDRIIHHTSFQEMKNNPSTNYTTLPDEIMNQKLSPFMRKGITGDWKNHFTVALNEKFDKHYEQQMKESTLKFRTEI
notes: cytosolic sulfotransferase SULT1E1, human, recombinant; The oligomeric state in the assay is not known to the authors; source: E. coli DH5α, purified (Ni-NTA agarose, hydroxyapatite)
B3: microsomal cytochrome b5 (CYB5A) (natural protein, UniProt P00167 1-134, looked up)
chain: MAEQSDEAVKYYTLEEIQKHNHSKSTWLILHHKVYDLTKFLEEHPGGEEVLREQAGGDATENFEDVGHSTDAREMSKTFIIGELHPDDRPKLNKPPETLITTIDSSSSWWTNWVIPAISAVAVALMYRLYMAED
notes: microsomal cytochrome b5 (CYB5A), recombinant

What all share (settings): both partners purified
The target of assay [1] is T2, NADPH-dependent cytochrome P450 reductase (CPR) (UniProt P16435 1-677, FAD and FMN cofactors; species (human assumed, rat possible) and construct limits are only in Figure S5 or cited work). The experiment in a line: SPR; CPR covalently immobilised on CM5 chip via amino groups; SULT1E1 or SULT2A1 as analyte; HBS-EP+, 25 °C; with 1 mM PAPS; 1:1 Langmuir model. (SPR reads the build-up and loss of mass on a sensor chip optically.)

Assay [2] deals with T1, full-length steroid …. Briefly: SPR; SULT1E1 or SULT2A1 covalently immobilised on CM5 chip via amino groups; CYP17A1full or CYB5A injected at 50 to 5000 nM in HBS-EP+, 25 °C; with 1 mM PAPS; 1:1 Langmuir model.
The target of assay [3] is T1, full-length steroid …. The experiment in a line: SPR; SULT1E1 or SULT2A1 covalently immobilised on CM5 chip via amino groups; CYP17A1full, CYP17A1tr or CYB5A injected at 50 to 5000 nM in HBS-EP+ (10 mM HEPES, 150 mM NaCl, 3 mM EDTA, 0.05% P20, pH 7.4), 25 °C; no PAPS; 1:1 Langmuir model.
The target in assay [4] is T2, NADPH-dependent cytochrome P450 …. The experiment in a line: SPR; CPR covalently immobilised on CM5 chip via amino groups; SULT1E1 or SULT2A1 as analyte; HBS-EP+, 25 °C; no PAPS; 1:1 Langmuir model.
Assay [5] addresses B2. The experiment in a line: SPR; SULT1E1 or SULT2A1 covalently immobilised on CM5 chip via amino groups; CYP17A1full or CYB5A injected at 50 to 5000 nM in HBS-EP+, 25 °C; with 1 mM PAPS; 1:1 Langmuir model.
In assay [6] the target is B2. Briefly: SPR; SULT1E1 or SULT2A1 covalently immobilised on CM5 chip via amino groups; CYP17A1full, CYP17A1tr or CYB5A injected at 50 to 5000 nM in HBS-EP+ (10 mM HEPES, 150 mM NaCl, 3 mM EDTA, 0.05% P20, pH 7.4), 25 °C; no PAPS; 1:1 Langmuir model.

T2 sequence (P16435 whole entry): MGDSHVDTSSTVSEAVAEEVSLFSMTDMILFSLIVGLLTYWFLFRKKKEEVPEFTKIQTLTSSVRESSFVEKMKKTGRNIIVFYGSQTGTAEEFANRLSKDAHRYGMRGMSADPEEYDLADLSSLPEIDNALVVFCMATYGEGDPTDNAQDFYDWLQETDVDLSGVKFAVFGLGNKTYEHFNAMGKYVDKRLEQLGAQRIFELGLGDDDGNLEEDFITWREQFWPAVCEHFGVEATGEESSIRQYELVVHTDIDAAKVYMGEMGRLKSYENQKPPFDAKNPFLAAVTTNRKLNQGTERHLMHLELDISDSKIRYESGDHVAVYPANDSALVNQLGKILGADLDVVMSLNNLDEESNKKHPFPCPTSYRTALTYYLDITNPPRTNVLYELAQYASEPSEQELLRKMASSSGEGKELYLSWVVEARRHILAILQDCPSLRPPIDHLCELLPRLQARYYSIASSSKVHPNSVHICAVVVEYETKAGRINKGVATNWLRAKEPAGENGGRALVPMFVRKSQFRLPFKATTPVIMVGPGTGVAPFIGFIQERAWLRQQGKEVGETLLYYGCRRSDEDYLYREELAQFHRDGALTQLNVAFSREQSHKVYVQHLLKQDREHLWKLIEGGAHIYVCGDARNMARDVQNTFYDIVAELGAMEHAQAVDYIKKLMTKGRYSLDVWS

A word on the Kd: it is the equilibrium constant for the complex coming apart. What is called koff is the rate constant with which the complex falls apart. A higher koff goes with fast dissociation. By kon is commonly meant the rate constant with which the complex forms. Consider B1, for which the Kd in assay [1] worked out at 957 ± 89 nM; in assay [2], 105 ± 12 nM; in assay [3], 124 ± 11 nM; in assay [4] it was 1370 ± 126 nM. Further, the koff amounted to 0.00051 s⁻¹ in assay [1], 0.00137 s⁻¹ in assay [2], 0.00055 s⁻¹ in assay [3] and 0.00078 s⁻¹ in assay [4]. Moreover, the kon stood at 670 M⁻¹ s⁻¹ in assay [1], 13100 M⁻¹ s⁻¹ in assay [2], 4450 M⁻¹ s⁻¹ in assay [3] and 570 M⁻¹ s⁻¹ in assay [4].

In assay [2], B2 returned an equilibrium dissociation constant (Kd) of 138 ± 15 nM, a koff of 0.00076 s⁻¹ and a kon of 5520 M⁻¹ s⁻¹. Also, in assay [3], the dissociation constant Kd was 196 ± 21 nM, the koff turned out to be 0.00058 s⁻¹ and the kon was 2960 M⁻¹ s⁻¹.

In the assay with sulfotransferase SULT1E1 [5], B3 returned a Kd of 88 ± 8 nM, a koff of 0.00067 s⁻¹ and a kon of 7650 M⁻¹ s⁻¹. Further, in the assay with sulfotransferase SULT1E1 [6], the Kd is 71 ± 8 nM, the off-rate (koff) amounted to 0.00098 s⁻¹ and the kon was 13800 M⁻¹ s⁻¹.
